Among the data in patent publication US20230257794A1 are Kd values, retold here.

pKd: −log10 of the molar value.

Experiment [1] has as its target HIV-RSC3. Briefly: biolayer interferometry (Octet); fragment secreted by L. gasseri SP1.
Experiment [2] addresses TNFα (UniProt P01375). In words: biolayer interferometry (Octet); fragment secreted by L. gasseri.
Experiment [3] concerns the target TNFα (UniProt P01375). In words: biolayer interferometry; fragment secreted by L. rhamnosus GG SP1.

Chain of UniProt P01375 (P01375 77-233 limits assumed): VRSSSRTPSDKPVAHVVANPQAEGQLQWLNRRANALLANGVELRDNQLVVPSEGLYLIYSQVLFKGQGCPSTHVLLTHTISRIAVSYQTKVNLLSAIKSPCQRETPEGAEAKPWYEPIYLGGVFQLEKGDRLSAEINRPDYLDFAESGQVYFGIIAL

Substance “VRC01scFv (anti-HIV single chain fragment derived from the broadly neutralizing IgG antibody VRC01)” gave a pKd in experiment [1] of 7.99.

As for “ozoralizumab (anti-TNFα NANOBODY / antibody fragment marketed by Ablynx) (VHH)”, the pKd in experiment [2] is 9.16; in experiment [3] it was 8.21.
